Assays:
[1] = biological target: mTOR-mLST8 complex (10xHis-TEV-mTOR with untagged mLST8) (human, UniProt P42345 1-2549; Q9BVC4 1-326); assay: pull-down; WAC-3xFlag from Expi293 lysate purified and held on anti-Flag resin (washes incl. 5 mM ATP/5 mM MgCl2); purified prey added 20 min at 4 °C in 150 mM Tris pH 8, 300 mM KCl, 10% glycerol, 0.5 mM TCEP; elution with 3xFlag peptide; SDS/PAGE and western blot; settings: both partners purified
RUVBL1-RUVBL2 complex = biological target: T1, RUVBL1-RUVBL2 complex (human, UniProt Q9Y265 1-456; Q9Y230 1-463); assay: as above; settings: both partners purified
T1 construct: RUVBL1 (RuvB-like 1), human, N-terminal His-tag and TEV site; RUVBL2 (RuvB-like 2), human, untagged; also called RUVBL1‐RUVBL2 module; RUVBL1‐RUVBL2 ATPase module; source: E. coli BL21 (DE3), co-expressed, purified (HisTrap HP; an untagged form by TEV digestion and a second HisTrap step)
T1 sequence (Q9Y265 whole entry, chain 1 of 2): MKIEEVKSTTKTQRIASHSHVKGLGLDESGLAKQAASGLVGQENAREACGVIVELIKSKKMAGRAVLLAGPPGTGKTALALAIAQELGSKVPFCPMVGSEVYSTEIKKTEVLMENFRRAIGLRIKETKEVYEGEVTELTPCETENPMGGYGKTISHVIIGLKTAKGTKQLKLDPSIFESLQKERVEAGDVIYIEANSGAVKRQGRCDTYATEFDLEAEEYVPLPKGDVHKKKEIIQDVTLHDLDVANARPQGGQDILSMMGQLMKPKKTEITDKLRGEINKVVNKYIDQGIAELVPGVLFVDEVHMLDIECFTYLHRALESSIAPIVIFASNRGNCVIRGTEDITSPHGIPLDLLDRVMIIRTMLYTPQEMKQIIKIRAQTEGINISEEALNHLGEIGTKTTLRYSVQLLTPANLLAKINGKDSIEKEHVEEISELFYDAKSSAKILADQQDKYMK
T1 sequence (Q9Y230 whole entry, chain 2 of 2): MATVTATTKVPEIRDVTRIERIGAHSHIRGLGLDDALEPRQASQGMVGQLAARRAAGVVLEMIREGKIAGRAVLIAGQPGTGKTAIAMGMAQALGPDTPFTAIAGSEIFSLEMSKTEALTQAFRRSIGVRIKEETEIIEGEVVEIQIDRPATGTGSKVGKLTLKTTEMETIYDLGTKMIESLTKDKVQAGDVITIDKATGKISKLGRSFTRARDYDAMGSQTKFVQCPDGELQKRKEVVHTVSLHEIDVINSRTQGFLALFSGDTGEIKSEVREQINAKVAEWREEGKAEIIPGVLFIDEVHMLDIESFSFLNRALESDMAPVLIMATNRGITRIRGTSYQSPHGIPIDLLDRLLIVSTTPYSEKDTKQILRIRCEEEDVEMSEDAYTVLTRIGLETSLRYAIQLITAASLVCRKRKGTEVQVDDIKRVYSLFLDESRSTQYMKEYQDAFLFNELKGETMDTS

binding result [1]: binds | binding result (RUVBL1-RUVBL2 complex): binds
B1: WAC-3xFlag (human WAC with C-terminal 3xFlag tag, pACEMam-WAC-3C-3xFlag) (natural protein, UniProt Q9BTA9-1 1-647, looked up)
chain: MVMYARKQQRLSDGCHDRRGDSQPYQALKYSSKSHPSSGDHRHEKMRDAGDPSPPNKMLRRSDSPENKYSDSTGHSKAKNVHTHRVRERDGGTSYSPQENSHNHSALHSSNSHSSNPSNNPSKTSDAPYDSADDWSEHISSSGKKYYYNCRTEVSQWEKPKEWLEREQRQKEANKMAVNSFPKDRDYRREVMQATATSGFASGMEDKHSSDASSLLPQNILSQTSRHNDRDYRLPRAETHSSSTPVQHPIKPVVHPTATPSTVPSSPFTLQSDHQPKKSFDANGASTLSKLPTPTSSVPAQKTERKESTSGDKPVSHSCTTPSTSSASGLNPTSAPPTSASAVPVSPVPQSPIPPLLQDPNLLRQLLPALQATLQLNNSNVDISKINEVLTAAVTQASLQSIIHKFLTAGPSAFNITSLISQAAQLSTQAQPSNQSPMSLTSDASSPRSYVSPRISTPQTNTVPIKPLISTPPVSSQPKVSTPVVKQGPVSQSATQQPVTADKQQGHEPVSPRSLQRSSSQRSPSPGPNHTSNSSNASNATVVPQNSSARSTCSLTPALAAHFSENLIKHVQGWPADHAEKQASRLREEAHNMGTIHMSEICTELKNLRSLVRVCEIQATLREQRILFLRQQIKELEKLKNQNSFMV
notes: WAC (WW domain-containing adaptor with coiled-coil), human, cDNA NM_016628.5 from GenScript (clone OHu28471); An HRV 3C protease site stands between WAC and the 3xFlag tag; also called WW domain-containing adaptor with coiled-coil; WAC lysate; source: Expi293 cells, overexpressed; purified on anti-Flag resin and kept on the beads; not shown: 3xFlag, C-terminal, kept
